Results as given in US20030031667A1 (CELLDEX RESEARCH, published 2003).

T1: human macrophage mannose receptor (human, UniProt P22897 19-1456)
T1 construct: whole, on cells; In the immunoprecipitations it came from cell lysates; also called human B11 antigen; B11 target antigen
T1 sequence (looked up): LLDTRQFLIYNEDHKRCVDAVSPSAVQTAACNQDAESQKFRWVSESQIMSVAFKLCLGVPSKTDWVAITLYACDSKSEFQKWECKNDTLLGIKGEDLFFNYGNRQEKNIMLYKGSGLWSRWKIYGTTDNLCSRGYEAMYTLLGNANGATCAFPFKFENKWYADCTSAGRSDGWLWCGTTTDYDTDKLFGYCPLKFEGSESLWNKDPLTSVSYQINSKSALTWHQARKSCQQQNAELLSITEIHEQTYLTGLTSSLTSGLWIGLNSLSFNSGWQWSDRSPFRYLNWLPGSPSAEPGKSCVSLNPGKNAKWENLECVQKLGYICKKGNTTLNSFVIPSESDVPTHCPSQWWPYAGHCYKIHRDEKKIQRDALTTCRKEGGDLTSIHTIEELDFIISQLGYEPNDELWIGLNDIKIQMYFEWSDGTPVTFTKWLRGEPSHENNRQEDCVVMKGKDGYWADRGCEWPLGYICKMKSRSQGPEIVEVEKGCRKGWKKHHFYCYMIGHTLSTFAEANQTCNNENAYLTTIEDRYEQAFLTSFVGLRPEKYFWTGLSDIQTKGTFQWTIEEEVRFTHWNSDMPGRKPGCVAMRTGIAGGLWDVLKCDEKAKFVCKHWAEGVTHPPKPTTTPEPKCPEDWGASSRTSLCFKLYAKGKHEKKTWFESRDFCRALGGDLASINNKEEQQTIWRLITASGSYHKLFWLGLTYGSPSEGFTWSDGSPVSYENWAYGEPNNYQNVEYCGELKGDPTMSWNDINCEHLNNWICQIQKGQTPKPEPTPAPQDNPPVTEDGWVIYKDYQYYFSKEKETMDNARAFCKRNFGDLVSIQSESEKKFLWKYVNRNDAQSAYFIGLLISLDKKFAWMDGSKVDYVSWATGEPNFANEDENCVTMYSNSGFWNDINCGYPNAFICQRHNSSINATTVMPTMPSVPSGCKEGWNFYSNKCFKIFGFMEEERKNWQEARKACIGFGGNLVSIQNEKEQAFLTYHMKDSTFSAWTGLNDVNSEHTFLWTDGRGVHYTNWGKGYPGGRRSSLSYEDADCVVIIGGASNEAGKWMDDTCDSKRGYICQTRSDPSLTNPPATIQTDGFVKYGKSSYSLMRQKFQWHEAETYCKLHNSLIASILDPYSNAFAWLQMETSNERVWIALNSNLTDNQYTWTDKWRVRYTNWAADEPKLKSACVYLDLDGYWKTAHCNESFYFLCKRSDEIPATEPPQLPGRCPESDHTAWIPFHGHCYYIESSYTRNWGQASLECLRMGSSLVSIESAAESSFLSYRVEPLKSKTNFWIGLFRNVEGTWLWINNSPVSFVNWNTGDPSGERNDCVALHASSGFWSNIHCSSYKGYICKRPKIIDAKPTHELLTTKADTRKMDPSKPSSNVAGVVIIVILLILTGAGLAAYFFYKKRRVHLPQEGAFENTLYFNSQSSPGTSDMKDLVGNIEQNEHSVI


Experiments:
[1] = target: T1, human macrophage mannose receptor; test: flow cytometry, hybridoma supernatant on monocyte-derived human dendritic cells
Description: The hybridomas secreting human IgG were tested for reactivity with various types of blood cells by flow cytometry. Dendritic cells were prepared from adherent mononuclear cells by culturing for 5-7 days in media supplemented with GM-CSF and IL-4. Granulocytes (PMN), monocytes and lymphocytes were obtained from heparanized whole blood. The cells were incubated with hybridoma supernatants from IgG-positive clones at 4° C. Binding was detected with a FITC-labeled goat anti-human IgG(Fc) probe. The cell associated fluorescence was determined by analysis using a FACScalibur instrument.

[2] = target: T1, human macrophage mannose receptor; test: flow cytometry on monocyte-derived dendritic cells, anti-human IgG-F(ab')2-PE probe
Description: The reactivity of F(ab′)2 fragments of human monoclonal antibody B11 with dendritic cells from human tissues was evaluated by flow cytometry.
F(ab′)2 fragments were prepared by digestion of purified B11 mAb with pepsin under standard conditions. The F(ab′)2 fragments were purified by protein L chromatography. Dendritic cells, prepared fresh from human monocytes by culture in GM-CSF and IL-4, were incubated with whole antibody or F(ab′)2 antibody fragments for 1 hour at 4° C. The cells were washed before incubation with anti-human IgG-F(ab′)2-PE probe for 1 hour at 4° C. The cells were washed again prior to analysis using a FACScalibur instrument and Cellquest software.

| binding result [1] | binding result [2] | Binder |
| --- | --- | --- |
| binds | – | human monoclonal antibody B11 (antibody, human IgG1, V domains shown, Human IgG1 kappa from a HuMAb mouse hybridoma; also called B11 HuMab; mAb B11) VH: EVQLVQSGAEVKKPGESLRISCKGSGDSFTTYWIGWVRQMPGKGLEWMGIIYPGDSDTIYSPSFQGQVTISADKSISTAYLQWSSLKASDTAMYYCTRGDRGVDYWGQGTLVTVSS VL: DIQMTQSPSSLSASVGDRVTITCRASQGISRWLAWYQQKPEKAPKSLIYAASSLQSGVPSRFSGSGSGTDFTLTISGLQPEDFATYYCQQYNSYPRTFGQGTKVEIK |
| – | binds | F(ab')2 fragments of human monoclonal antibody B11 (other, See the note of m1 on the VH/VL conflict; also called B11 F(ab')2) VH: EVQLVQSGAEVKKPGESLRISCKGSGDSFTTYWIGWVRQMPGKGLEWMGIIYPGDSDTIYSPSFQGQVTISADKSISTAYLQWSSLKASDTAMYYCTRGDRGVDYWGQGTLVTVSS VL: DIQMTQSPSSLSASVGDRVTITCRASQGISRWLAWYQQKPEKAPKSLIYAASSLQSGVPSRFSGSGSGTDFTLTISGLQPEDFATYYCQQYNSYPRTFGQGTKVEIK |
